Assay [1] addresses HEV methyltransferase fused to the GAL4 binding domain (UniProt P33424). Briefly: yeast two-hybrid quantitative α-galactosidase assay. The following applies: triplicate samples, parent: est. 8.7, read off a plot.
In assay [2] the target is HEV ORF3 protein fused to the GAL4 binding domain. The assay is described as above. The following applies: triplicate samples, parent: est. 11, read off a plot.
In assay [3] the target is GST fused X-domain (Hepatitis E virus) (UniProt P33424). Briefly: pull-down; ~500 fmol ORF3-His or ~500 fmol Met-His alone with 500 fmol GST-X; bound fraction against input by band intensity.
The target is the same in assay [4]. Briefly: pull-down; competition: ORF3-His and Met-His together with 500 fmol GST-X, equimolar (~500 fmol) or with 1 and 2 pmol of one of them.

As to “HEV X-domain (macro domain) fused to the GAL4 activation domain (from UniProt P33424) L94R”, the response (normalized α-gal units) in assay [1] (P=0.82 vs wild type X) amounted to 8.3; in assay [2] (P=0.056 vs wild type X), 13.

Consider “HEV X-domain (macro domain) fused to the GAL4 activation domain (from UniProt P33424) I66E; I67E”, for which the response (normalized α-gal units) in assay [2] (P=0.002 vs wild type X) came to 6.2.

Take “HEV X-domain (macro domain) fused to the GAL4 activation domain (from UniProt P33424) R93E”: the response (normalized α-gal units) stood at 7.6 in assay [1] (P=0.51 vs wild type X) and 13 in assay [2] (P=0.077 vs wild type X).

As for “HEV X-domain (macro domain) fused to the GAL4 activation domain (from UniProt P33424) L101E; L102E”, the response (normalized α-gal units) came to 1.9 in assay [1] and 3.2 in assay [2].

Consider “His-tagged ORF3 (pRSET ORF3) (from UniProt O90299 1-114) (natural protein)”, for which the percent of input pulled down in assay [3] amounted to 25%. The percent of input in the bound fraction with equimolar Met-His present in assay [4] is 10%.

On to “HEV X-domain (macro domain) fused to the GAL4 activation domain (from UniProt P33424) R93E; L101E; L102E”, for which the response (normalized α-gal units) in assay [1] came to 1.6; in assay [2] it was 2.9.

The values above are taken from publication PMC4844956.
